Experimental data as given in patent publication US20060067951A1 (GOVERNING COUNCIL OF THE UNIVERSITY OF TORONTO, published 2006).

Target: T1, S. mutans ComD histidine kinase receptor (Streptococcus mutans)
T1 chain: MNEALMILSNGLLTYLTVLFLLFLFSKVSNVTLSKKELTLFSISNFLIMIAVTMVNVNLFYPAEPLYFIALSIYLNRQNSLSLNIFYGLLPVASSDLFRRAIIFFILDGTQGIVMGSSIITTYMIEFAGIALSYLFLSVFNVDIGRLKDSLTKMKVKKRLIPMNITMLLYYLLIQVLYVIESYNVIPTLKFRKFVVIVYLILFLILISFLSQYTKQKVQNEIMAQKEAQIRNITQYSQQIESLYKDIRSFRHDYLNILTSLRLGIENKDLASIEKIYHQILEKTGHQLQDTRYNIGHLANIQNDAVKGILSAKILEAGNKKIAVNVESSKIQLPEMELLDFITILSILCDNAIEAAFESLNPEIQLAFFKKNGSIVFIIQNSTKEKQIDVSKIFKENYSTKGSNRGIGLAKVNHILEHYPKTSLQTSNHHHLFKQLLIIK
Test: cell-based or functional assay

B1: CSP peptide analog G1 (peptide)
peptide: SGSLSTFFRLFNRSFTQAGK
Transformation efficiency (vs 5 µg CSP), 5 µg/ml peptide, S. mutans wild-type UA159: 2 fold decrease
Transformation efficiency (vs no CSP), 5 µg/ml peptide, S. mutans wild-type UA159: 848 fold increase

B2: CSP peptide analog E2 (peptide)
peptide: SGSLSTFFRLFNASFTQALGK
Transformation efficiency (vs 5 µg CSP), 5 µg/ml peptide, S. mutans wild-type UA159: 6 fold decrease
Transformation efficiency (vs no CSP), 5 µg/ml peptide, S. mutans wild-type UA159: 252 fold increase

B3: CSP peptide analog C2 (peptide)
peptide: SGSLSTFFALFNRSFTQALGK
Transformation efficiency (vs 5 µg CSP), 5 µg/ml peptide, S. mutans wild-type UA159: 48 fold decrease
Transformation efficiency (vs no CSP), 5 µg/ml peptide, S. mutans wild-type UA159: 32 fold increase

B4: CSP peptide analog B2 (peptide)
peptide: SGSLSTFFVLFNRSFTQALGK
Transformation efficiency (vs 5 µg CSP), 5 µg/ml peptide, S. mutans wild-type UA159: 414 fold decrease
Transformation efficiency (vs no CSP), 5 µg/ml peptide, S. mutans wild-type UA159: 4 fold increase

B5: mature wild-type S. mutans competence stimulating peptide (CSP) (peptide)
peptide: SGSLSTFFRLFNRSFTQALGK
Transformation efficiency (vs no CSP), 5 µg/ml peptide, S. mutans wild-type UA159: 1550 fold increase

B6: CSP peptide analog D2 (peptide)
peptide: SGSLSTFFRLFNVSFTQALGK
Transformation efficiency (vs 5 µg CSP), 5 µg/ml peptide, S. mutans wild-type UA159: 16 fold decrease
Transformation efficiency (vs no CSP), 5 µg/ml peptide, S. mutans wild-type UA159: 99 fold increase

B7: CSP peptide analog E1 (peptide)
peptide: SGSLTFFRLFNRSFTQALGK
Transformation efficiency (vs 5 µg CSP), 5 µg/ml peptide, S. mutans wild-type UA159: 2 fold decrease
Transformation efficiency (vs no CSP), 5 µg/ml peptide, S. mutans wild-type UA159: 791 fold increase

B8: CSP peptide analog B3 (peptide)
peptide: SGTLSTFFRLFNRSFTQA
Transformation efficiency (vs 5 µg CSP), 5 µg/ml peptide, S. mutans wild-type UA159: 8 fold decrease
Transformation efficiency (vs no CSP), 5 µg/ml peptide, S. mutans wild-type UA159: 195 fold increase

B9: CSP peptide analog F1 (peptide)
peptide: SGSLSTFFRLFNRSFTQALK
Transformation efficiency (vs 5 µg CSP), 5 µg/ml peptide, S. mutans wild-type UA159: 3 fold decrease
Transformation efficiency (vs no CSP), 5 µg/ml peptide, S. mutans wild-type UA159: 541 fold increase

B10: CSP peptide analog G2 (peptide)
peptide: SGSLSTFFRLFNRSFTQALGA
Transformation efficiency (vs 5 µg CSP), 5 µg/ml peptide, S. mutans wild-type UA159: 28 fold decrease
Transformation efficiency (vs no CSP), 5 µg/ml peptide, S. mutans wild-type UA159: 56 fold increase

B11: CSP peptide analog F2 (peptide)
peptide: SGSLSTFFRLFNRSFTQALGV
Transformation efficiency (vs 5 µg CSP), 5 µg/ml peptide, S. mutans wild-type UA159: 3 fold decrease
Transformation efficiency (vs no CSP), 5 µg/ml peptide, S. mutans wild-type UA159: 543 fold increase

B12: CSP peptide analog A2 (peptide)
peptide: SGSLSTFFRLFNRSFTALGK
Transformation efficiency (vs 5 µg CSP), 5 µg/ml peptide, S. mutans wild-type UA159: 7 fold decrease
Transformation efficiency (vs no CSP), 5 µg/ml peptide, S. mutans wild-type UA159: 125 fold increase

B13: CSP peptide analog H1 (peptide)
peptide: SGSLSTFFRLFNRSFTQLGK
Transformation efficiency (vs 5 µg CSP), 5 µg/ml peptide, S. mutans wild-type UA159: 28000 fold decrease
Transformation efficiency (vs no CSP), 5 µg/ml peptide, S. mutans wild-type UA159: 18 fold decrease

B14: CSP peptide analog D1 (peptide)
peptide: SGSSTFFRLFNRSFTQALGK
Transformation efficiency (vs 5 µg CSP), 5 µg/ml peptide, S. mutans wild-type UA159: 6 fold decrease
Transformation efficiency (vs no CSP), 5 µg/ml peptide, S. mutans wild-type UA159: 275 fold increase
